Test results as given in patent US20250333441A1, “POLYPEPTIDE INHIBITORS AND USES THEREOF” (Neuracle Science Co., Ltd., priority 2021, published 2025).

B1: LRRC4B mutant: LRRC4B (453-576) with alanine substitutions at positions 488 and 489 of SEQ ID NO: 2 (SEQ ID NO: 16) (protein)
chain: VSAVDPVAAGGTGSGGGGPGGSGGVGGGSGGYTYFAAVTVETLETQPGEEALQPRGTEKEPPGPTTDGVWGGGRPGDAAGPASSSTTAPAPRSSRPTEKAFTVPITDVTENALKDLDDVMKTTK
modifications: human Fc fusion in use
B2: LRRC4B (484-576): LRRC4B fragment, amino acids 484-576 of SEQ ID NO: 2 (SEQ ID NO: 8) (protein)
chain: YTYFTTVTVETLETQPGEEALQPRGTEKEPPGPTTDGVWGGGRPGDAAGPASSSTTAPAPRSSRPTEKAFTVPITDVTENALKDLDDVMKTTK

Tests used:
[1] = molecular target: binding of FAM19A5 protein to full-length ectodomain of LRRC4C protein (Homo sapiens, UniProt Q7Z5A7); experiment: Competitive inhibition assay, plate coated with full-length LRRC4C ectodomain; conditions: 100 nM/well coated full-length LRRC4C ectodomain; FAM19A5 5 ng/mL
Sequence of binding of FAM19A5 protein to full-length ectodomain of LRRC4C protein (Q7Z5A7 44-132): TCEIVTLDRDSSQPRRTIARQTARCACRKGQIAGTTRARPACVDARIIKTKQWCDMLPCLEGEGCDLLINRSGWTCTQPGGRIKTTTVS
Method: (§1) As described in Example 3, there appeared to be much similarity in the binding domains of the different members of the LRRC4 family. […] Then, recombinant FAM19A5 protein (5 ng/mL) was added in combination with one of the following: (i) LRRC4B (484-576) protein fragment, (ii) LRRC4B (453-576, AA) protein fragment, and (iii) synthetic FB-20 peptide. The plates were incubated at 37° C., and then, the amount of FAM19A5 protein bound to the coated LRRC4, LRRC4B, or LRRC4C proteins was measured using anti-FAM19A5 (1-65) antibody.

[2] = test system: mouse primary cortical neurons; experiment: Neurite growth of primary cortical neurons (beta-tubulin III immunostaining); assay type: cell-based; conditions: FB peptides; treated for two days, assessed at day 3
Method: Next, primary cortical neurons (day 1 postnatal) were cultured in vitro with varying concentrations (0.006 to 60 nM) of the LRRC4B (453-576) protein fragment (i.e., amino acid residues 453-576 of SEQ ID NO: 2; SEQ ID NO: 7), and then at day 3 post-initial culture, the effect on neurite growth was assessed by immunostaining the cells with anti-beta-tubulin III antibody. Cells cultured with DMSO (“Veh”) were used as control.
Mouse hippocampal neurons were treated with LRRC4B peptides at 1 and 2 DIV to determine neurite growth. It was measured by using 3 different parameters, which are total neurites length, number of primary and secondary neurites. After the neurons were stained with beta-tubulin III at 3 DIV, neurites length and branch points were measured using Fiji (Image J, NIH, Bethesda). Individual neurons were selected by hand and these parameters were counted using the Simple neurite tracer plugin. Mouse spinal motor neurons sampled at postnatal day 1 were treated with 10 nM of NS101 and LRRC4B-peptides (dFB-dWY-JM31 and dFB-DY-JM31) at 1 and 2 DIV and immunostained with Tau-5 antibody at 3 DIV. Total neurite length and number of somas in images were measured by Neurphology Image J plugin.

FAM19A5 protein [3] = molecular target: T1, FAM19A5 protein (Homo sapiens, UniProt Q7Z5A7); experiment: ELISA binding of recombinant FAM19A5 to coated LRRC4 family ectodomains, fragments and FB peptides; conditions: coated protein or peptide, FAM19A5 up to 10 nM
Method: Next, to confirm the above co-immunoprecipitation results, an ELISA assay was used to measure the binding of the FAM19A5 protein to either the full-length ectodomain of members of LRRC4 protein family or various LRRC4B ectodomain protein fragments. Specifically, an ELISA plate was coated with one of the following LRRC4B ectodomain protein, which was conjugated to human Fc (100 nM/well): (1) full-length ectodomain of LRRC4 protein (amino acid residues 39-527 of SEQ ID NO: 1) (SEQ ID NO: 4); (2) full-length ectodomain of LRRC4B protein (amino acids 36-576 of SEQ ID NO: 2; i.e., construct #7 in Table 6) (SEQ ID NO: 5); (3) full-length ectodomain of LRRC4C protein (amino acids 45-527 of SEQ ID NO: 3) (SEQ ID NO: 6); (4) LRRC4B ectodomain fragment (amino acids 453-576 of SEQ ID NO: 2; i.e., construct #11 in Table 6) (SEQ ID NO: 7); (5) LRRC4B ectodomain fragment (amino acids 484-576 of SEQ ID NO: 2; i.e., construct #12 in Table 6) (SEQ ID NO: 8); (6) LRRC4B ectodomain fragment (amino acids 482-576 of SEQ ID NO: 2) (SEQ ID NO: 9); (7) LRRC4B ectodomain fragment (amino acids 482-497 of SEQ ID NO: 2) (SEQ ID NO: 10); and (8) LRRC4B ectodomain fragment (amino acids 498-576 of SEQ ID NO: 2; i.e., construct #13 in Table 6) (SEQ ID NO: 11). Then, recombinant FAM19A5 proteins (0.005, 0.01, 0.025, 0.05, 0.1, 0.25, 0.5, 1, 2.5, 5, and 10 nM) were added to the relevant wells, and the plates were incubated at 37° C. for 1 hour. Afterwards, the amount of LRRC4B-bound FAM19A5 protein was detected using […] anti-FAM19A5 (1-65) antibody.
As further confirmation, three synthetic polypeptides comprising amino acids 484-497 of SEQ ID NO: 2 (i.e., YTYFTTVTVETLET; SEQ ID NO: 65) were constructed: (1) FB-16 (GYTYFTTVTVETLETQ; SEQ ID NO: 17), (2) FB-20 ([…]; SEQ ID NO: 18), and (3) FB-28 ([…]; SEQ ID NO: 19). The peptides differed in their total length. The ability of these polypeptides to bind to recombinant FAM19A5 protein was assessed using an ELISA assay as described above.
Target sequence in this assay (Q7Z5A7 44-132): as above

[4] = molecular target: binding of FAM19A5 protein to full-length ectodomain of LRRC4 protein (Homo sapiens, UniProt Q7Z5A7); experiment: Competitive inhibition assay, plate coated with full-length LRRC4 ectodomain; conditions: 100 nM/well coated full-length LRRC4 ectodomain; FAM19A5 5 ng/mL
Sequence of binding of FAM19A5 protein to full-length ectodomain of LRRC4 protein (Q7Z5A7 44-132): as above
Method: as §1

[5] = molecular target: binding of FAM19A5 protein to full-length ectodomain of the LRRC4B protein (amino acids 36-576)-hFc (Homo sapiens, UniProt Q7Z5A7); experiment: Competitive inhibition assay, plate coated with full-length LRRC4B ectodomain; conditions: 100 nM coated ectodomain; FAM19A5 5 ng/mL; increasing concentrations
Sequence of binding of FAM19A5 protein to full-length ectodomain of the LRRC4B protein (amino acids 36-576)-hFc (Q7Z5A7 44-132): as above
Method: Next, to further assess the role that the binding domain of the LRRC4B protein has on the interaction between FAM19A5 protein and members of the LRRC4 protein family, a competitive inhibition assay was used to determine whether different LRRC4B deletion constructs from Example 2 could inhibit the binding of FAM19A5 to the full-length ectodomain of the LRRC4B protein (i.e., amino acids 36-576 of SEQ ID NO: 2; SEQ ID NO: 5). Briefly, 100 nM of the full-length ectodomain of the LRRC4B protein was used to coat a plate, and then recombinant FAM19A5 protein (5 ng/mL) was added to the plate in combination with the following LRRC4B deletion constructs (increasing concentrations): (1) LRRC4B (453-576) (i.e., construct #11 in Table 6); (2) LRRC4B (453-576) mutant (comprises alanine substitutions at positions 488 and 489 of SEQ ID NO: 2; SEQ ID NO: 16); (3) LRRC4B (484-576) (i.e., construct #12 in Table 6); (4) LRRC4B (482-576); (5) LRRC4B (482-497); and (6) LRRC4B (498-576). The plates were incubated at 37° C., and then, the amount of FAM19A5 bound to the coated LRRC4B ectodomain protein was measured using H1RP-conjugated anti-FAM19A5 (1-65) antibody. […]

[6] = molecular target: T2, FAM19A5 (isoform 2) - full-length LRRC4B protein complex (Homo sapiens, UniProt Q7Z5A7); experiment: Immunofluorescence: dissociation of FAM19A5 from full-length LRRC4B in HEK293 cells; assay type: cell-based; conditions: HEK293 cells expressing FAM19A5 isoform 2 and LRRC4B, treated 30 minutes
T2 construct: expressed in transfected cells; host or cells: HEK293
T2 sequence (Q7Z5A7 1-125 isoform Q7Z5A7-2, one chain of several): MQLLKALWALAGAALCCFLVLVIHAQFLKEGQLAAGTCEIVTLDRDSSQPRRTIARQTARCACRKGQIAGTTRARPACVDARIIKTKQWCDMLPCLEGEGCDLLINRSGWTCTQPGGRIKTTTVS
Method: Since LRRC4B protein fragments containing the binding domain described in Example 2 (e.g., LRRC4B (453-576); i.e., construct #11 in Table 6) was able to bind to FAM19A5 protein with high affinity, it was next assessed whether such protein fragments could compete with naturally existing LRRC4B protein for binding to FAM19A5 protein, and thereby, dissociate the FAM19A5-LRRC4 protein family complex. Briefly, HEK293 cells expressing both FAM19A5 isoform 2 and LRRC4B protein were treated (i.e., cultured in vitro) for 30 minutes with either LRRC4B (453-576)-hFc or mutant LRRC4B (453-576)-hFc (includes alanine substitutions at positions 488 and 489 of SEQ ID NO: 2; SEQ ID NO: 16) protein fragments. Then, the cells were immunostained with anti-FAM19A5 (1-65) and anti-LRRC4B antibodies to determine the expression of FAM19A5 and full-length LRRC4B proteins, respectively. The hFc-fused LRRC4B protein fragments were determined using an anti-hIgG antibody. The nuclei were stained with Hoechst 33342.

FAM19A5 protein [7] = molecular target: T1, FAM19A5 protein; experiment: competitive inhibition ELISA; competitor: coated LRRC4B(453-576, TT/TT)-hFc
FAM19A5 protein [8] = molecular target: T1, FAM19A5 protein; experiment: Co-immunoprecipitation of FLAG-tagged LRRC4 family constructs with recombinant FAM19A5 in HEK293 cells; assay type: binding; conditions: HEK293 cells expressing FLAG-tagged construct, recombinant FAM19A5 protein (1 μM) 30 minutes; anti-FLAG immunoprecipitation
Method: To better understand the interaction between FAM19A5 and members of the LRRC4 protein family, HEK293 cells were modified to express a FLAG-tagged member of the LRRC4 protein family, i.e., LRRC4C protein, LRRC4 protein, or LRRC4B protein. Then, the HEK293 cells or primary cortical neurons were treated with recombinant FAM19A5 protein (1 μM) for 30 minutes, and the binding between FAM19A5 protein and the different members of the LRRC4 protein family was assessed using both co-immunoprecipitation and immunofluorescence assays.
For the co-immunoprecipitation assay, cell lysates from the different FAM19A5-treated HEK293 cells were collected and immunoprecipitated with an anti-FLAG antibody, anti-FAM19A5 (1-65) antibody, or a human IgG antibody (control). Immunoprecipitated proteins were immunoblotted with anti-FLAG and anti-FAM19A5 (3-2) antibodies. For the immunofluorescence assay, the HEK293 cells treated with the recombinant FAM19A5 protein were immunostained with anti-FAM19A5 (3-2) (to detect FAM19A5 protein expression) and anti-FLAG antibodies (to detect member of the LRRC4 protein family). The primary cortical neurons treated with the recombinant FAM19A5 protein were immunostained with anti-FAM19A5 (3-2) and anti-LRRC4B antibodies. The nuclei were stained with Hoechst33342 (blue).
To determine the specific motif or domain of the LRRC4B protein that is responsible for the binding to a FAM19A5 protein, various FLAG-tagged LRRC4B deletion constructs were generated (see Table 6 below). HEK293 cells were transfected with the different deletion constructs and then treated with recombinant FAM19A5 protein as described in Example 1. Then, the cell lysates from the different HEK293 cells were immunoprecipitated with the anti-FLAG antibody. The immunoprecipitated proteins were immunoblotted with anti-FLAG and anti-FAM19A5 (3-2) antibodies.
As described in Example 2, all members of the LRRC4 protein family were capable of binding to FAM19A5 protein to varying degrees. Therefore, to compare the bindings domains, the amino acid sequences of the LRRC4B, LRRC4, and LRRC4C proteins were aligned. […] Therefore, to assess whether the corresponding positions of LRRC4 and LRRC4C were important in the binding of these proteins to FAM19A5 protein, cDNAs encoding either (i) LRRC4C protein fragment (amino acids 354-527 of SEQ ID NO: 3; SEQ ID NO: 66) or (ii) LRRC4 protein fragment (amino acids 353-527 of SEQ ID NO: 1; SEQ ID NO: 67) were constructed (see Table 7). HEK293 cells were transfected to express either of the protein fragments and then treated with recombinant FAM19A5 protein as described in Example 1. Then, the cell lysates from the different HEK293 cells were immunoprecipitated with the anti-FLAG antibody. The immunoprecipitated proteins were immunoblotted with anti-FLAG and anti-FAM19A5 (3-2) antibodies.
Target sequence in this assay (Q7Z5A7 44-132): as the sequence (Q7Z5A7 44-132) above

Row | Molecule | inhibition of FAM19A5 binding to coated LRRC4C protein [1] | neurite outgrowth [2] | binding to FAM19A5 protein (ELISA) (FAM19A5 protein [3]) | inhibition of FAM19A5 binding to coated LRRC4 protein [4] | inhibition of FAM19A5 binding to coated full-length LRRC4B ectodomain protein [5] | dissociation of FAM19A5 from full-length LRRC4B protein [6] | fold increase in ability to dissociate the LRRC4B-FAM19A5 complex, against wild-type FB-21 (FAM19A5 protein [7]) [fold] | binding to FAM19A5 protein (co-immunoprecipitation) (FAM19A5 protein [8])
1 | GYTYFTTVTVETLETQPGEE [FB-20] | able to inhibit FAM19A5 protein from binding | Increased neurite outgrowth | high affinity | able to inhibit FAM19A5 protein from binding |  |  |  | 
2 | GYTYFTTVTVETLETQ [FB-16] |  | Increased neurite outgrowth | high affinity |  |  |  |  | 
3 | GYTYFTTVTVETLETQPGEKEPPGPTTD [FB-28] |  | Increased neurite outgrowth | high affinity |  |  |  |  | 
4 | B1 | minimal effect |  |  | minimal effect | much inferior in their ability to inhibit the interaction | FAM19A5 protein remained largely bound |  | 
5 | GYTYFTTVTVEWYETQPGEEA [FB-21 (W12Y13)] |  |  |  |  |  |  | 2.9 | 
6 | B2 | able to inhibit FAM19A5 protein from binding |  |  | able to inhibit FAM19A5 protein from binding | able to inhibit the interaction |  |  | able to bind to the FAM19A5 protein
